Data from the RNAGym collection of RNA variant scans (doi:10.1101/gr.219683.116).

B1: mRNA-splicing (parent)
chain: AGUUGCUGCUGGGAGCUCCAGCACAGUGAAAUGGACAGAAGGGCAGAGCAA

Variants of: B1
Test: exon inclusion enrichment index; higher = more inclusion; WT1 exon 5 minigene, HEK293

Row | Variant | exon inclusion enrichment index
1 | G5A U7C G8A U10C G43U C44G | 0.5
2 | G5A U7C G8A U10C G43U C44U | 0.735
3 | G5A U7C G8A U10C G43U C44A | 0.058
4 | G5A U7C G8A U10C G11A G12U | 0.486
5 | G5A U7C G8A U10C G11A G12A | 0.934
6 | G5A U7C G8A U10C G11A G12C | 0.699
7 | G5C C6A U7A G8A U10A | 0.0993
8 | G5C C6A U7C G8A U10A A14G G15C | 0.0391
9 | G5C C6A U7C G8A U10A A14G G15A | 0.119
10 | G5C C6A U7C G8A U10A A14G G15U | 0.0158
11 | G5A U7C G8A U10C G12C G13A | 0.95
12 | G5A U7C G8A U10C G12C G13C | 0.397
13 | G5A U7C G8A U10C G12C G13U | 0.139
14 | G5A U7C G8A U10C U32C G33A | 1.18
15 | G5A U7C G8A U10C U32C G33C | 3.24
16 | G5A U7C G8A U10C U32C G33U | 1.75
17 | G5A U7C G8A U10C C36G A37U | 1.08
18 | G5A U7C G8A U10C C36G A37C | 0.667
19 | G5A U7C G8A U10C C36G A37G | 0.405
20 | G5C C6A G8A U10A | 0.0612
21 | G5A U7C G8A U10C G15A | 2.02
22 | G5A U7C G8A U10C G15C | 2.72
23 | G5A U7C G8A U10C G15U | 2.27
24 | G5A U7G U10C | 0.936

Row | Variant | exon inclusion enrichment index
25 | G5C C6A U7A G8C U10A | 0.514
26 | G5A U7C G8A U10C G21C | 2.25
27 | G5A U7C G8A U10C G21U | 1.92
28 | G5A U7C G8A U10C G21A | 1.67
29 | G5A U7C G8A U10C U27G G28U | 0.0167
30 | G5A U7C G8A U10C U27G G28A | 2.37
31 | G5A U7C G8A U10C U27G G28C | 1.17
32 | G5A U7C G8A U10C G26A U27G | 2.93
33 | G5A U7C G8A U10C G26A U27A | 2.4
34 | G5A U7C G8A U10C G26A U27C | 3.43
35 | G5A U7C G8A U10C U17A C18U | 1.52
36 | G5A U7C G8A U10C U17A C18G | 2
37 | G5A U7C G8A U10C U17A C18A | 1.29
38 | G5A U7C G8A U10C G41C G42U | 3.05
39 | G5A U7C G8A U10C G41C G42A | 2.13
40 | G5A U7C G8A U10C G41C G42C | 3.27
41 | G5C C6A G8C C9U U10C | 2.4
42 | G5A U7C G8A U10C G26C | 2.46
43 | G5A U7C G8A U10C G26U | 2.46
44 | G5A U7C G8A U10C G26A | 3.08
45 | G5A U7G G8A U10C | 2.7
46 | G5C C6A U7C G8A U10A A20U G21U | 0.037
47 | G5C C6A U7C G8A U10A A20U G21A | 0.0323
48 | G5C C6A U7C G8A U10A A20U G21C | 0.0942

Row | Variant | exon inclusion enrichment index
49 | G5C C6A U7C G8A U10A A14C G15A | 0.0306
50 | G5C C6A U7C G8A U10A A14C G15U | 0.00827
51 | G5C C6A U7C G8A U10A A14C G15C | 0.00871
52 | G5A U7C G8U C9G U10C | 1.91
53 | G5C C6A U7C G8A C9G U10C | 1.42
54 | G5C C6A U7C G8A C9G U10A | 0.545
55 | G5C C6A U7C G8A C9G U10G | 0.11
56 | G5A U7C G8A U10G | 1.28
57 | G5A U7C G8A U10C G33C G34C | 1.34
58 | G5A U7C G8A U10C G33C G34U | 1.72
59 | G5A U7C G8A U10C G33C G34A | 1.53
60 | G5A U7C G8A U10C G33A G34A | 0.398
61 | G5A U7C G8A U10C G33A G34C | 0.421
62 | G5A U7C G8A U10C G33A G34U | 0.361
63 | G5A U7C G8A U10C G21U C22A | 0.951
64 | G5A U7C G8A U10C G21U C22G | 2.27
65 | G5A U7C G8A U10C G21U C22U | 0.857
66 | G5C | 0.147
67 | G5C C6A U7C G8A U10A | 0.12
68 | G5A U7C G8A U10C C24G A25G | 1.35
69 | G5A U7C G8A U10C C24G A25C | 3.54
70 | G5A U7C G8A U10C C24G A25U | 2.8
71 | G5A U7C G8A U10C G46C A47G | 2.57
72 | G5A U7C G8A U10C G46C A47U | 2.03

Row | Variant | exon inclusion enrichment index
73 | G5A U7C G8A U10C G46C A47C | 1.81
74 | G5C C6A U7C G8A U10A A20C | 0.142
75 | G5C C6A U7C G8A U10A A20G | 0.306
76 | G5C C6A U7C G8A U10A A20U | 0.199
77 | G5A U7C G8A U10C G15A C16A | 1.46
78 | G5A U7C G8A U10C G15A C16U | 1.55
79 | G5A U7C G8A U10C G15A C16G | 1.31
80 | G5A U7C G8A U10C G34U A35U | 0.441
81 | G5A U7C G8A U10C G34U A35G | 0.753
82 | G5A U7C G8A U10C G34U A35C | 0.726
83 | G5A U7C G8A U10C G46A A47U | 2.29
84 | G5A U7C G8A U10C G46A A47G | 0.953
85 | G5A U7C G8A U10C G46A A47C | 3.08
86 | G5A U7C G8A U10C G38U A39G | 1.15
87 | G5A U7C G8A U10C G38U A39U | 0.126
88 | G5A U7C G8A U10C G38U A39C | 1.83
89 | G5A U7C G8A U10C G28C A29C | 1.72
90 | G5A U7C G8A U10C G28C A29G | 3.25
91 | G5A U7C G8A U10C G28C A29U | 1.13
92 | G5A U7C G8A U10C C36A | 1.85
93 | G5A U7C G8A U10C C36U | 0.719
94 | G5A U7C G8A U10C C36G | 1.55
95 | G5A U7C G8A U10C G11U G12A | 0.117
96 | G5A U7C G8A U10C G11U G12U | 0.337

Row | Variant | exon inclusion enrichment index
97 | G5A U7C G8A U10C G11U G12C | 0.738
98 | G5A U7C G8A U10C G15U C16U | 1.86
99 | G5A U7C G8A U10C G15U C16G | 1.74
100 | G5A U7C G8A U10C G15U C16A | 1.58
101 | G5A U7C G8A U10C G28U A29U | 0.443
102 | G5A U7C G8A U10C G28U A29C | 1.47
103 | G5A U7C G8A U10C G28U A29G | 2.07
104 | G5A U7C G8A U10C G41C | 3.34
105 | G5A U7C G8A U10C G41U | 2.09
106 | G5A U7C G8A U10C G41A | 1.44
107 | G5A U7C G8A U10C G28A A29U | 0.513
108 | G5A U7C G8A U10C G28A A29G | 1.02
109 | G5A U7C G8A U10C G28A A29C | 1.44
110 | G5C C6A U7A G8U U10A | 0.0878
111 | G5C C6A U7C G8A U10A A14U | 0.0358
112 | G5C C6A U7C G8A U10A A14C | 0.0603
113 | G5C C6A U7C G8A U10A A14G | 0.0477
114 | G5A U10C | 2.01
115 | G5A U7G G8C U10C | 2.13
116 | G5A U7C G8A U10C C44U | 0.581
117 | G5A U7C G8A U10C C44G | 3.26
118 | G5A U7C G8A U10C C44A | 3.82
119 | G5C C6A G8U C9U | 0.42
120 | G5A U7C G8C C9U U10C | 1.27

Row | Variant | exon inclusion enrichment index
121 | G5A U7C G8A U10C G33C | 2.65
122 | G5A U7C G8A U10C G33A | 0.235
123 | G5A U7C G8A U10C G33U | 0.998
124 | G5A U7C G8A U10C U17C C18A | 1.54
125 | G5A U7C G8A U10C U17C C18G | 2.38
126 | G5A U7C G8A U10C U17C C18U | 1.85
127 | G5A U7C G8A U10C G26U U27A | 1.08
128 | G5A U7C G8A U10C G26U U27G | 3.47
129 | G5A U7C G8A U10C G26U U27C | 3.63
130 | G5A U7C G8A U10C G11C G12A | 0.351
131 | G5A U7C G8A U10C G11C G12U | 0.353
132 | G5A U7C G8A U10C G11C G12C | 0.415
133 | G5C C6A U7C G8A U10A A14U G15A | 0.00771
134 | G5C C6A U7C G8A U10A A14U G15U | 0.0233
135 | G5C C6A U7C G8A U10A A14U G15C | 0.0301
136 | G5A U7C G8U C9U U10C | 1.17
137 | G5A U7C G8A U10C G13U A14G | 0.535
138 | G5A U7C G8A U10C G13U A14C | 1.41
139 | G5A U7C G8A U10C G13U A14U | 1.08
140 | G5C C6A U7C G8A U10A A23G C24U | 0.0154
141 | G5C C6A U7C G8A U10A A23G C24G | 0.559
142 | G5C C6A U7C G8A U10A A23G C24A | 0.48
143 | G5A U7C G8A U10C G41U G42A | 0.909
144 | G5A U7C G8A U10C G41U G42U | 1.9

Row | Variant | exon inclusion enrichment index
145 | G5A U7C G8A U10C G41U G42C | 2.97
146 | G5A U7C U10C | 4.21
147 | G5A U7C G8A U10G G11U | 2.44
148 | G5A U7C G8A U10G G11C | 2.55
149 | G5A U7C G8A U10G G11A | 2.46
150 | G5A U7C G8A U10C G26C U27A | 2.48
151 | G5A U7C G8A U10C G26C U27G | 3.53
152 | G5A U7C G8A U10C G26C U27C | 3.74
153 | G5A U7C G8A U10C U32A G33C | 2.91
154 | G5A U7C G8A U10C U32A G33A | 1.05
155 | G5A U7C G8A U10C U32A G33U | 1.68
156 | G5A U7C G8A U10C G46A | 2.32
157 | G5A U7C G8A U10C G46C | 2.03
158 | G5A U7C G8A U10C G46U | 1.6
159 | G5A U7C G8A U10C U17C | 1.62
160 | G5A U7C G8A U10C U17G | 1.81
161 | G5A U7C G8A U10C U17A | 1.89
162 | G5A U7C G8A U10C G13U | 0.0615
163 | G5A U7C G8A U10C G13A | 2.41
164 | G5A U7C G8A U10C G13C | 1.1
165 | G5A U7C G8A U10C C36U A37G | 2.16
166 | G5A U7C G8A U10C C36U A37U | 1.38
167 | G5A U7C G8A U10C C36U A37C | 1.63
